{"source": "patent US12466853B2", "about": "“Selective targeting of apoptosis proteins by structurally-stabilized and/or cysteine-reactive NOXA peptides” (priority 2017, dated 2025)", "key": {"[1]": {"test_system": "U937 cells", "assay": "Cell viability (CellTiter-Glo) and CalcuSyn synergy, U937", "conditions": "U937 cells (BFL-1-dependent)", "procedure": "(§1) Cell viability and caspase-3/7 activation was measured using CellTiter-Glo and Caspase-Glo 3/7 chemiluminescence reagents (Promega), respectively, and luminescence was detected by a Spectramax M5 microplate reader. Synergy of drug interactions was calculated using the CalcuSyn software (Biosoft)."}, "[2]": {"test_system": "MV4;11 cells", "assay": "Cell viability (CellTiter-Glo) and CalcuSyn synergy, MV4;11", "procedure": "as §1"}, "[3]": {"target": "T1, MCL-1 (Homo sapiens, UniProt Q07820)", "T1 construct": "endogenous protein in lysates from the A375P melanoma cell line; endogenous in cells; host or cells: A375P melanoma cells (lysate)", "assay": "MCL-1 engagement in A375P lysates (streptavidin pulldown, MCL-1 western)", "format": "binding", "conditions": "biotinylated SAHB", "procedure": "Cultured A375P and U937 cells were trypsinized or harvested, respectively, washed with PBS, and lysed by incubating with 1% CHAPS lysis buffer (1% CHAPS, 150 mM NaCl, 50 mM Tris pH 7.4, 100 μM DTT). The protein concentrations of the soluble fraction were measured using a BCA kit according to the manufacturer's instructions (Thermo Scientific). Lysate samples (1 mg) were incubated with vehicle or C-terminally biotinylated NOXA SAHBs (30 μM) overnight in 1% CHAPS lysis buffer at 4° C. Biotin capture was accomplished by incubating the mixture with high-capacity SA agarose (Thermo Scientific) for 2 hours at 4° C., followed by centrifugation and washing the pelleted beads three times with lysis buffer (1 mL). Bead-bound proteins were eluted by boiling in 10% SDS containing 10 mg/mL biotin for 10 minutes and then subjected to electrophoresis and western blotting using BFL-1 (Abcam, #125259) and MCL-1 (Rockland #600-401-394S) antibodies."}, "[4]": {"target": "T2, FLAG-MCL-1 / tBID (Homo sapiens, UniProt Q07820)", "T2 construct": "expressed in transfected cells; host or cells: 293T (lysate)", "assay": "MCL-1/tBID complex disruption in 293T lysates", "format": "binding", "conditions": "FLAG immunoprecipitation", "procedure": "To evaluate the capacity of biotinylated SAHBs to compete with tBID for interactions with BFL-1 and MCL-1, 293T cells were transfected with either HA-BFL-1ΔC C4S/C19S or FLAG-MCL-1 in the p3XFLAG-CMV-10 vector (Sigma) as above. After 24 hr, cells were trypsinized, washed with PBS, lysed in 1% CHAPS buffer, and the supernatant collected for protein concentration determination by BCA kit. Lysate samples (0.5 mg) were incubated with 0.25 μM recombinant tBID (R&D Systems) and 5 μM biotinylated NOXA SAHBs for 6 h at RT. The mixtures were then subjected to HA or FLAG immunoprecipitation, followed by western analysis using 1:1000 dilutions of HA (Sigma Aldrich, #12CA5), FLAG (Sigma-Aldrich, F7425), and BID (Santa Cruz sc-11423) antibodies."}, "[5]": {"target": "T3, BFL-1ΔC C4S/C19S/C55S / FITC-BID BH3 (Homo sapiens, UniProt Q16548, C19S/C4S/C55S)", "T3 construct": "Recombinant anti-apoptotic BFL-1ΔC (aa 1-151) and its cysteine to serine mutants were cloned into PET17b; hexahistidine (N); made in house; host or cells: Escherichia coli LOBSTR BL21(DE3)", "T3 sequence (Q16548 1-151 C4S/C19S/C55S)": "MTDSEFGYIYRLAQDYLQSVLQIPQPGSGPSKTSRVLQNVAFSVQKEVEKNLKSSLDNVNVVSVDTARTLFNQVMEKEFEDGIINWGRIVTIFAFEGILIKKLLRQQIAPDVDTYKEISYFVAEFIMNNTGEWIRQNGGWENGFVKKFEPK", "assay": "Competitive fluorescence polarization binding assay, BFL-1ΔC C4S/C19S/C55S", "procedure": "(§2) Fluorescence polarization (FP) assays were performed as previously described (Pitter et al., 2008 (supra)). Briefly, direct binding curves were first generated by FITC-BID BH3 (25 nM) with serial dilutions of anti-apoptotic protein, and FP was measured at 5 min on a SpectraMax M5 microplate reader (Molecular Devices). For competition assays, a serial dilution of acetylated or warhead-bearing NOXA SAHB was added to the indicated recombinant protein at ˜EC75 concentration, as determined by the direct binding assay. FITC-BID BH3 (25 nM) was then added and fluorescence polarization was measured at equilibrium. IC50 values were calculated by nonlinear regression analysis of competitive binding curves using PRISM software (GraphPad)."}, "[6]": {"target": "T4, BCL-XLΔC / FITC-BID BH3 (Homo sapiens, UniProt Q07817)", "T4 construct": "Recombinant anti-apoptotic BCL-XLΔC (aa 1-212) and MCL-1ΔNΔC (aa 172-329); GST (N, cleaved yes); made in house; host or cells: Escherichia coli BL21(DE3)", "T4 sequence (Q07817 1-212, stated change not applied)": "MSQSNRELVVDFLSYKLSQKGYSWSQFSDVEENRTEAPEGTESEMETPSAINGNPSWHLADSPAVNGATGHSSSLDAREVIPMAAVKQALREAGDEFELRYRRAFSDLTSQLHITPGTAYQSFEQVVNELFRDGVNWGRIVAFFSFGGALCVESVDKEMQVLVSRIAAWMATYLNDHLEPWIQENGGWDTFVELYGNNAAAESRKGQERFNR", "assay": "Competitive fluorescence polarization binding assay, BCL-XLΔC", "procedure": "as §2"}, "[7]": {"target": "T5, His-BFL-1ΔC (Homo sapiens, UniProt Q16548)", "T5 construct": "Recombinant anti-apoptotic BFL-1ΔC (aa 1-151) and its cysteine to serine mutants were cloned into PET17b; made in house; host or cells: Escherichia coli LOBSTR BL21(DE3)", "T5 sequence (Q16548 1-151)": "T3 sequence (Q16548 1-151 C4S/C19S/C55S) with S4C, S19C, S55C", "assay": "Streptavidin pulldown from recombinant protein mixture, BFL-1", "format": "binding", "conditions": "equimolar mixture of recombinant MCL-1, BCL-XL, BFL-1 and biotinylated SAHB, silver stain", "procedure": "WT His-BFL-1ΔC, BCL-XLΔC (tagless), and GST-MCL-1ΔNΔC (1 μM each) were combined and incubated with 3 mM DTT in PBS for thirty minutes at room temperature. Mixtures were treated with vehicle or the indicated C-terminally biotinylated NOXA SAHB (1 μM) for four hours and were then added to 30 μL PBS-washed high-capacity streptavidin (SA) agarose beads (Thermo Fisher Pierce) and incubated with rotation at room temperature for two hours. The beads were then washed three times with NP-40 lysis buffer (1% NP-40, 50 mM Tris pH 8, 100 mM NaCl, 2.5 mM MgCl2) and three times with PBS. To elute bound protein, beads were boiled for ten minutes with 10% SDS containing 10 mg/mL biotin. After elution, samples were boiled with 3×LDS and 2M DTT for twenty minutes. Gel electrophoresis using a 12% Bis-Tris gel was conducted on inputs (2%) and eluates (5 μL) and gels were developed using the Pierce silver staining kit (Thermo Fisher)."}}, "note": "Numbering of substitutions follows the chain as printed. Positions of bridges follow the written chain, without caps; N, C: chain ends. Non-standard residues stand in square brackets, D forms with d. No end group written: not given here. R8 = C=CCCCCCC[C@@](C)(N)C(=O)O; S5 = C=CCCC[C@](C)(N)C(=O)O", "data": [{"compound": "Cc1c(-c2c(-c3ccc(F)o3)sc3ncnc(O[C@H](Cc4ccccc4OCc4ccnn4CC(F)(F)F)C(=O)O)c23)ccc(OCCN2CCN(C)CC2)c1Cl", "note": "[S63845]", "values": [{"measurement": "cytotoxicity, single agent", "setting": "[1]", "result": "no activity"}, {"measurement": "cytotoxic synergy upon co-treatment", "setting": "[2]; MV4;11 cells (not dependent on BFL-1)", "result": "synergy in combination with ATM inhibition"}, {"measurement": "cytotoxicity, single agent", "setting": "[2]; MV4;11 cells (not dependent on BFL-1, dependent on MCL-1)", "result": "single agent activity"}]}, {"compound": "AT8LREFGDXLNFRQ (AT[R8]LREFGD[S5]LNFRQ; staple 3-10 (inferred); not fully specified (N-terminus); printed as AT8LREFGDXLNFRQ) [Ac-NOXA-15 R31E, acetylated counterpart of D-NA-NOXA-15 R31E]", "values": [{"measurement": "MCL-1 engagement", "setting": "[3]", "result": "approximately equivalent binding to MCL-1"}, {"measurement": "dissociation of FLAG-MCL-1/tBID interaction", "setting": "[4]", "result": "neither D-NA- nor Ac-NOXA15 R31E is able to dissociate the interaction"}, {"measurement": "competition for FITC-BID BH3 binding to BFL-1ΔC C4S/C19S/C55S", "setting": "[5]", "result": "neither D-NA- nor Ac-NOXA15 R31E competes"}, {"measurement": "competition for FITC-BID BH3 binding to BCL-XLΔC", "setting": "[6]", "result": "neither Ac- nor D-NA-NOXA-15 R31E is able to compete"}]}, {"compound": "*AT8LRRFGDXLNFRQ [Ac-NOXA SAHB, acetyl-capped i, i+7-stapled NOXA BH3 peptide (aa 26-40)]", "values": [{"measurement": "BFL-1 binding / pull down", "setting": "[7]", "result": "little to no interaction with BFL-1"}]}]}
